Values joined by “and” are separate entries in the source; they are usually repeats but may differ in a detail not shown here. Equal entries are not always repeated. Where two headings read alike, the source gives them in different places.
Key:
[1] = biological target: the molecule itself; test: cryo-EM structure
[2] = biological target: the molecule itself; test: cryo-EM structure; remark: listed apart in the source

Protein	stoichiometry N [1]	stoichiometry N [2]
mouse wild-type 5-HT3A receptor (receptor, UniProt P23979 24-489, looked up) SRRRATQARDTTQPALLRLSDHLLANYKKGVRPVRDWRKPTTVSIDVIMYAILNVDEKNQVLTTYIWYRQYWTDEFLQWTPEDFDNVTKLSIPTDSIWVPDILINEFVDVGKSPNIPYVYVHHRGEVQNYKPLQLVTACSLDIYNFPFDVQNCSLTFTSWLHTIQDINITLWRSPEEVRSDKSIFINQGEWELLEVFPQFKEFSIDISNSYAEMKFYVIIRRRPLFYAVSLLLPSIFLMVVDIVGFCLPPDSGERVSFKITLLLGYSVFLIIVSDTLPATAIGTPLIGVYFVVCMALLVISLAETIFIVRLVHKQDLQRPVPDWLRHLVLDRIAWILCLGEQPMAHRPPATFQANKTDDCSGSDLLPAMGNHCSHVGGPQDLEKTPRGRGSPLPPPREASLAVRGLLQELSSIRHFLEKRDEMREVARDWLRVGYVLDRLLFRIYLLAVLAYSITLVTLWSIWHYS	5	
human wild-type 5-HT3A receptor (receptor, UniProt P46098 24-478, looked up) RRSRNTTRPALLRLSDYLLTNYRKGVRPVRDWRKPTTVSIDVIVYAILNVDEKNQVLTTYIWYRQYWTDEFLQWNPEDFDNITKLSIPTDSIWVPDILINEFVDVGKSPNIPYVYIRHQGEVQNYKPLQVVTACSLDIYNFPFDVQNCSLTFTSWLHTIQDINISLWRLPEKVKSDRSVFMNQGEWELLGVLPYFREFSMESSNYYAEMKFYVVIRRRPLFYVVSLLLPSIFLMVMDIVGFYLPPNSGERVSFKITLLLGYSVFLIIVSDTLPATAIGTPLIGVYFVVCMALLVISLAETIFIVRLVHKQDLQQPVPAWLRHLVLERIAWLLCLREQSTSQRPPATSQATKTDDCSAMGNHCSHMGGPQDFEKSPRDRCSPPPPPREASLAVCGLLQELSSIRQFLEKRDEIREVARDWLRVGSVLDKLLFHIYLLAVLAYSITLVMLWSIWQYA		5 and 4

— article doi:10.1101/2024.02.23.581731 (bioRxiv, 2024)
